According to patent publication US20220089784A1 (University of California, published 2022):

Tests used:
[1] = molecular target: T1, BoNT/B light chain (recombinant) (Clostridium botulinum, UniProt P10844 1-441); test: yeast scFv FACS
T1 sequence: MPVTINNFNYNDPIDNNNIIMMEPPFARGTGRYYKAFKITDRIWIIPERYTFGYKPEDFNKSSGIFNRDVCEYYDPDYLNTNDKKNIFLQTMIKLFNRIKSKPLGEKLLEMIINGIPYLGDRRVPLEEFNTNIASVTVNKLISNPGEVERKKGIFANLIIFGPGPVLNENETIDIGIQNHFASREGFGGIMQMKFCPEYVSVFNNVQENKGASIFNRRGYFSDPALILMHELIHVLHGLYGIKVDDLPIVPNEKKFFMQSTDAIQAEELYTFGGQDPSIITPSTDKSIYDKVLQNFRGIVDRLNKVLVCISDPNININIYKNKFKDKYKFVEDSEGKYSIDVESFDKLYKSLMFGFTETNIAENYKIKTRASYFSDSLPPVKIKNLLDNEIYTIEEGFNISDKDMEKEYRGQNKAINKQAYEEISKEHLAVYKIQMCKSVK

BoNT/B1 = molecular target: T2, BoNT/B1 (Clostridium botulinum, UniProt P10844 2-1291); test: yeast scFv FACS
T2 sequence: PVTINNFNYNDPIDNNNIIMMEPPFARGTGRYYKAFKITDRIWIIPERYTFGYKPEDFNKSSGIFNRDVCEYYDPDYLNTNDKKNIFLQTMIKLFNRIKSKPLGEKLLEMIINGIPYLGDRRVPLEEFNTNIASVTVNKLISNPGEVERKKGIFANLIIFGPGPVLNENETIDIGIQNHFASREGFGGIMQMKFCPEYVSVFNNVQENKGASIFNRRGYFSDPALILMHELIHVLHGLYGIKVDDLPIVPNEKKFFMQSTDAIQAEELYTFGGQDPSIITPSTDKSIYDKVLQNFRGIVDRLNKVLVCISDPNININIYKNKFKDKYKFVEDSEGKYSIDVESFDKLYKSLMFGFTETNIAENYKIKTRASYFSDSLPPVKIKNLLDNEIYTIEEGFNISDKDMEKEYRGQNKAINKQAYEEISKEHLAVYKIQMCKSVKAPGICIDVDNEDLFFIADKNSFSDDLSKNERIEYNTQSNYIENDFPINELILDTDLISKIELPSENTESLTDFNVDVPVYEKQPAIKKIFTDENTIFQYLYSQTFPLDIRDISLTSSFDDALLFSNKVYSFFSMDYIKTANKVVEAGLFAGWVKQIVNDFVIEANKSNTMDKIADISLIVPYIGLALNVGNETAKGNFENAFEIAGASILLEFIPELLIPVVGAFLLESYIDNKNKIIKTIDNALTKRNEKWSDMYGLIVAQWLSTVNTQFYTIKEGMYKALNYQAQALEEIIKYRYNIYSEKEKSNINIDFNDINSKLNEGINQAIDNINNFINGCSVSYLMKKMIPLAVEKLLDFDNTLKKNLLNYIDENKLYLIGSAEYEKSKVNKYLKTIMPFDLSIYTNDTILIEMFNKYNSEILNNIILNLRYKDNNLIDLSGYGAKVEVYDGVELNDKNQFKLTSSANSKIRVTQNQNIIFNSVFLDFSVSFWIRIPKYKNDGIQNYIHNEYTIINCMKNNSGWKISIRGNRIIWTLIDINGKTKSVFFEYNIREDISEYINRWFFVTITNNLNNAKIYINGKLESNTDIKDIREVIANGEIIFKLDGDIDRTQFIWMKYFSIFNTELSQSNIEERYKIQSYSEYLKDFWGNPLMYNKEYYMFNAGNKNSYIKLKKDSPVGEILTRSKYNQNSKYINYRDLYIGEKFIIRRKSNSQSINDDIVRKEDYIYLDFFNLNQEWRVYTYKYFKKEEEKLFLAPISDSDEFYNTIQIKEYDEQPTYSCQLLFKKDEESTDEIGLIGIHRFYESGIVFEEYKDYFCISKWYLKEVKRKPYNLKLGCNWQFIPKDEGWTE

[2] = molecular target: T3, BoNT/F1 (proteolytic BoNT/F) (Clostridium botulinum, UniProt A7GBG3 1-1278); test: IgG
T3 sequence: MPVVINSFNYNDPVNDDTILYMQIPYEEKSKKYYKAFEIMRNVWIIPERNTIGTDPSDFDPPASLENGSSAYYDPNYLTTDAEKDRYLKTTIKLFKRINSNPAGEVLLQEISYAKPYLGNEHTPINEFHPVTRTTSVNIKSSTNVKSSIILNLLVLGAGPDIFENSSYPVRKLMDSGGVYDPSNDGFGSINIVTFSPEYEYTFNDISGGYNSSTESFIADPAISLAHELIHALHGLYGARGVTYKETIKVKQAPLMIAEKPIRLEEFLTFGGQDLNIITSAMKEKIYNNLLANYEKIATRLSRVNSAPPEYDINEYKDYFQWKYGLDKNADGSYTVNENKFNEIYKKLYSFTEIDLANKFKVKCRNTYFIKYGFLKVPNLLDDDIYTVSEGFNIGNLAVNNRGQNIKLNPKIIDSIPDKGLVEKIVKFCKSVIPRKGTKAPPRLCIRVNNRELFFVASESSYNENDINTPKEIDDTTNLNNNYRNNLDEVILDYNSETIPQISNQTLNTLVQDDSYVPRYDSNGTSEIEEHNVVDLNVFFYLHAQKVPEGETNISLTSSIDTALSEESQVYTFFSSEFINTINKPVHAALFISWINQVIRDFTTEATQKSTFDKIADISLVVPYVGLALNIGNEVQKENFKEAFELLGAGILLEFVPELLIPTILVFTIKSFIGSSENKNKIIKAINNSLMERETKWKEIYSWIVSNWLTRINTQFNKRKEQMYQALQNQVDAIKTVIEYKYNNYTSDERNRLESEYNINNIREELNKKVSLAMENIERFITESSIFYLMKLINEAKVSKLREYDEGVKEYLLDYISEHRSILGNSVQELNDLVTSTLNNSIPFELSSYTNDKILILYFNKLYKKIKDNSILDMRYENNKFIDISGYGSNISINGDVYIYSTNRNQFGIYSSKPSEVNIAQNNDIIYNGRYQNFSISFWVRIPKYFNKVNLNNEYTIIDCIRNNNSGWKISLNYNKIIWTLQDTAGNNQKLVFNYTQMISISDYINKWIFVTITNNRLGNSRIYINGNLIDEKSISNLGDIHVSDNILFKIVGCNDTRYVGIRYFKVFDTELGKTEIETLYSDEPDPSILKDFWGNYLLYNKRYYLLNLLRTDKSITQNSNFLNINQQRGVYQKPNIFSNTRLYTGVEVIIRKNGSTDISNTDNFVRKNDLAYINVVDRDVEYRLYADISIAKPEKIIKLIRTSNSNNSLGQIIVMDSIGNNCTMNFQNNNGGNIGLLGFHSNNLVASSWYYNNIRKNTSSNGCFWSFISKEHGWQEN

B1: 19A9 scFv (scFv)
scFv: EVQLQQPGSELARPGASVKLSCKASGYTFTSYPITWVKQTTGQGLEWIGEIYPRSGNTYYNEKFKGKATLTADKSSSTAYMELRSLTSEDSAVYFCARDYYDYAGGGRGYWGQGTTLTVSSVDLKSGGSTSGSGKPGSGEGSSGSARDIVLTQSPAIMSASPGGKITITCSASSSVSYMHWFQQKPGTSPKLWIYSTSNLASGVPARFSGSGSGTSYSLTISRMEAEDAATYYCQQRSSYPYTFGGGTKLEIK
notes: mouse
Kd [1]: 3.16 nM | Kd (BoNT/B1): 1.98 nM

B2: 18D10 scFv (scFv)
scFv: QVQLKQSGIEVMKPGASVKLSCKASGYPFTAYWIEWVKQRPGHGLEWIGEFLPGGISTNFNEKFKGKATFSADTSSNSAYIQLNSLTTEDSAIYYCVLTGTGFDYWGQGTSVTVSSVDLKSGGSTSGSGKPGSGEGSSGSARENVLTQSPAIMSASPGEKVTMTCSASSSVSYMHWYQQKSGTSPKRWIYDTSKLASGVPARFSGSGSGTSYSLTISSMEAEDAATYYCQQWSSNPLTFGAGTKLELK
notes: mouse
Kd [1]: 7.53 nM | Kd (BoNT/B1): 5.97 nM

B3: 6F5 IgG (antibody, V domains shown)
VH: EVQLVQSGGNLVQPGGSLRLSCAATGPIGSHWMTWVRQAPGQGLEWVANINLDGTEKFYVDSVKGRFTVSRDNRKSSVFLQMNNLRVDDTAVYYCARLQWGGYNGWLSPWGQGTLVTVSS
VL: DIEMTQSPPSLSASVGDRVSLTCRASEYIGTSLNWYQQKPGKAPKLLIYAASALHSGVPSRFSGSGSGTDFTLTISGLQPEDFATYYCQQANDLPLTFGGGTKLEIK
Kd [2]: 0.66 nM

B4: 19B6 scFv (scFv)
scFv: QVQLQQSGAELVKPGASVKISCKASGYTFTDNYINWVKQRPGQGLEWIGWIHPGSGNAKYNEKFRAKATLTVDTSSNTAYMQLSSLTSEDSAVYFCARVGFRVNFDYWGQGTTLTVSSVDLKSGGSTSGSGKPGSGEGSSGSARQIVLTQSPAIMSASPGEKVTMTCSASSSLSYVHWYQQKPGSSPKPWIYATSNLVSGVPARFSGSRSGTSYSLTISSMEAEDAATYYCQQWSSYPPTFGAGTKLEIK
notes: mouse
Kd [1]: 2.35 nM | Kd (BoNT/B1): 19.7 nM

B5: 18A6 scFv (scFv)
scFv: EVQLQQSGPELVKPGASVKISCKASGYTFTDNYINWVKQRPGQGLEWIGWIYPGSGNTKYNEKFKGKATLTVDTSSNTAYMQLTGLASDDSAVYFCARVNFYVSWDYWGQGTSVTVSSVDLKSGGSTSGSGKPGSGEGSSGSAREIVLTQSPAIMSASPGEKVTMTCSASSSISYMHWFQQKPGMSPKRRIFDTSKLASGVPARFSGSGSGTSYSLTISSMEAEDAGTYYCHQRSSYPFTFGGGTKLELK
notes: mouse
Kd [1]: 4.21 nM | Kd (BoNT/B1): 14.5 nM

B6: 16D5 scFv (scFv)
scFv: EVKLVESGAELVRPGASVKLSCTPSGFNIKDDYMHWVKQRPEQGLEWIGRIDPANGNTRYAPKFQDKATLTADTSSNTAYLHLTSLTSEDTAVYYCARSYYRAWFDYWGQGTLVTVSSVDLKSGGSTSGSGKPGSGEGSSGSARQIVLTQSPATLSVTPGDSVSLSCRASQSISNNLHWYQQKSHESPRLLIKYASQSISGIPSRFSGSGSGTDFTLSINSVETEDFGMYFCQQSNSWPLTFGAGTRLEIK
notes: mouse
Kd [1]: 1.8 nM | Kd (BoNT/B1): 7.57 nM

B7: 16B3 scFv (scFv)
scFv: EVQLQQSGPELVKPGASVKITCKASGYTFTDNNMDWVKQSHGKSLEWIGDINPNNGGSIYNQKFKGKASLTLDKSSSTAYMELRSLTSEDTAVYYCARWGYYGSLAYWGQGTLVTVSSVDLKSGGSTSGSGKPGSGEGSSGSARQNVLTQSPAIMSASPGEKVTMTCSASSSVSSRYLHWYQQKSGASPKLWIYGTSNLASGVPARFSGSGSGTSYSLTISSVEAEDAATYYCQQYHSDPLTFGGGTKLEIK
notes: mouse
Kd [1]: 0.84 nM | Kd (BoNT/B1): 1.01 nM

B8: 19D22 scFv (scFv)
scFv: QIQLLQSGAELVRPGTSVKMSCKAAGYPFTSYWMGWVKQRPGHGLEWIGDIYPGGPYTNYNEKFKGKATLTADTSSSTAYMQFSSLTSEDSAIYYCALYGQVGSYAMDYWGQGTSVTVSSVDLKSGGSTSGSGKPGSGEGSSGSARQIVLTQSPAIMSASPGEKVTMTCSASSSVSYMYWYQQKPGSSPRLLIYDTSNLASGVPVRFSGSGSGTSYSLTISRMEAEDAATYYCQQWSSYPPITFGAGTKLEIK
notes: mouse
Kd [1]: 21.2 nM | Kd (BoNT/B1): 7.39 nM

B9: 18E5 scFv (scFv)
scFv: EVQLQESGPELVKPGASVKISCKASGYTFTDHNMDWVKQSLGKSLEWIGDINPNNGGAVYNQNFKGKATLTVDKSSSTAYMELRSLTSEDTAVYYCARYGYYGYFDYWGQGTTLTVSSVDLKSGGSTSGSGKPGSGEGSSGSARQIVLTQSPAIMSASPGEKVTMTCRASSSVSSSYLHWYQQKPGSSPKLWIYSTSNLASGVPARFSGSGSGTSYSLTISSVEAEDAATYYCQQYDSSPSTFGAGTKLEIK
notes: mouse
Kd [1]: 1 nM | Kd (BoNT/B1): 1.33 nM

B10: 6F3 IgG (antibody, V domains shown)
VH: QVQLQQSGPEVVKPGASVKISCKASGYTFADYWIGWTKQGPGHGLEWIGHIYPGGGYINYNEKFKGKATLTADMSSSTAYMQFSSLTSEDSAIYYCARVTMVESGDWYFDVWGTGTTVTVSS
VL: ENVLTQSPAIMSASLGEEITLTCSASSSVSYMHWYQQKSGTSPKLWIYYTSNLASGVPARFSGSGSGTSYSLTISSMEAEDAATYYCQQWSSNPYTFGGGTKLEIK
notes: IgG from scFv V genes
Kd [2]: 2.39 nM

B11: 19D2 scFv (scFv)
scFv: EVQLQQSGGELARPGSSVKLSCKASGYSFTGYSLTWVKQTPGQGLEWIGEIYPRSGNTYYNENFQGKATLTADESSSTAYMELRSLTSEDSAVYFCARDFYDYDGGGRGYWGQGTTLTVSSVDLKSGGSTSGSGKPGSGEGSSGSARDIVMTQTPAIMSASPGEKVTITCSASSSVSYMHWYQQKPGTSPKLWIYSTSNLASGVPARFSGSGSGTSYSLTISRMEAEDAATYYCQQRSSYPYTFGGGTKLEIK
notes: mouse
Kd [1]: 5.69 nM | Kd (BoNT/B1): 2.95 nM
